Experimental findings from US20250263490A1 (VIB VZW, published 2025) are described below.

The labels stand for the following.
B1: anti-CI-M6PR VHH5 (VHH)
VHH: QVQLQESGGGLVQAGGSLKLSCAAAGRTFSRLAMGWFRQAPGKEREFVAAISENGDSIHYSDSVKGRFAVSRDNAKNTVYLQMNSLKPEDTAIYYCAADRAAYYCSGSGCYPSRAPAAASYDYWGQGTQVTVSS
notes: His6-tagged; made in Pichia pastoris, later also in E. coli WK6
B2: anti-CI-M6PR VHH9 (VHH)
VHH: QVQLQESGGGLVQAGGSLRLSCAASGTILSIKTMGWYRQAPGKEREWVATITSSSIPMYADSVKGRFTISRDDAKNTVYLQMNSLKPEDTGVYYCNAPWTDYWGQGTQVTVSS
notes: His6-tagged; made in Pichia pastoris
B3: anti-CI-M6PR VHH1 (VHH)
VHH: QVQLQESGGGLVQPGGSLRLSCVASGFTFDRYWMNWLRQIPGKEIEWVSTINTGGTGTYYDDSVKGRFSISRDDAKNTLYLTMNSLKTEDTAVYYCARGATYYRGNSAIRGQGTQVTVSS
notes: as for B1
B4: anti-CI-M6PR VHH8 (VHH)
VHH: QVQLQESGGGLVQAGGSLRLSCEASGRTFNTYNWGWFRQAPGKEREFVAAIRWSSSKTSYADSVKGRFTISRDNAKNTIYLQMNSLKPEDTAVYYCAASIVDFTTNPSHFGSWGQGTQVTVSS
notes: His6-tagged (Pichia pastoris)
B5: anti-CI-M6PR VHH7 (VHH)
VHH: QVQLQESGGGLVQPGGSLRLSCAASGIIFSDNRMDWYRQAPGKQREWVATLASYGWKTYADSVKGRFTISRDNTKNTVYLRMNSLKPEDTAVYYCKASSPVLNDIWGQGTQVTVSS
notes: His6-tagged (Pichia pastoris)
B6: anti-CI-M6PR VHH6 (VHH)
VHH: QVQLQESGGGLVQAGGSLRLSCAVSGSISSIGGMGWFRQAPGKQREFVAVILNNSGMTSYADSVKGRFTISRGNSKNTMYLQMNSLKPEDTAVYYCNYSGYWGQGTQVTVSS
notes: His6-tagged; made in E. coli
B7: anti-CI-M6PR VHH4 (VHH)
VHH: QVQLQESGGGLVQAGGSLRLSCAASGRTFSNYVMGWFRQAPGKEREFVGSISQGGKMTYYPDSVKGRFTISRDNAKNTMYLQMDGLKPEDTAVYYCAVSRGYPMVRVSEVDYWGQGTQVTVSS
notes: as for B2
B8: anti-CI-M6PR VHH3 (VHH)
VHH: QVQLQESGGGLVQPGGSLRLSCAAFGLNFKNFDMIWFRQAPGEERDIVAAISSSSSTIWYEDSVKGRFTISRDNAKNTVYLQMNSLKPEDTAVYYCAAALTSWRRPDYWGQGTQVTVSS
notes: as for B2

Some results are limits rather than exact numbers.

One experiment addresses T1, recombinant human domain 1-3His6 of the cation-independent mannose-6-phosphate receptor (human, UniProt P11717 41-467).
T1 construct: Biotinylated (NHS-PEG4-biotin) for BLI; Glycosylated; also called hDom1-3His6; hCI-M6PRD1-D3
Kind of experiment: BLI at pH 7.4, 2nd of 2 repeats.
B1: the Kd (usually the equilibrium constant for the complex coming apart) is around 0.1 nM; the koff (as a rule, a measure of how fast the partners let go of each other) is 0.00018 s⁻¹; the kon (as a rule, the rate constant with which the complex forms) was 1.8e+06 M⁻¹ s⁻¹.

For B2, the Kd was found to be 0.282 nM, the koff was 0.000444 s⁻¹ and the kon stood at 1.57e+06 M⁻¹ s⁻¹.

For the molecule B3, the Kd was around 11.2 nM, the dissociation rate constant (koff) came to 0.0099 s⁻¹ and the kon worked out at 1e+06 M⁻¹ s⁻¹.

As to B4, the off-rate (koff) is 0.00065 s⁻¹.

Take B5: the equilibrium dissociation constant (Kd) stood at 9.08 nM, the koff stood at 0.0118 s⁻¹ and the kon is 1.3e+06 M⁻¹ s⁻¹.

As to B6, the Kd stood at 4.74 nM, the koff was determined as 0.00352 s⁻¹ and the kon was found to be 743000 M⁻¹ s⁻¹.

B7: the koff is 0.00133 s⁻¹.

As for B8, the Kd was found to be 7.1 nM, the koff came out at 0.000345 s⁻¹ and the kon came to 48600 M⁻¹ s⁻¹.

In the next experiment the target is T1, recombinant human domain 1-3His6 of the …. Kind of experiment: BLI exp 1, dissoc pH 7.4. As for the experimental part:
(§1) For each of the 11 anti-CI-M6PR VHHs, a biolayer interferometry (BLI) experiment was performed in which the hDom₁₋₃His₆ was biotinylated and coupled to streptavidin biosensor tips. Afterwards, the tips were incubated with serially diluted VHHs during the association phase and dissociation was performed at pH 7.4. Similarly, dissociation was performed at pH 7.0, pH 6.0 and pH 5.0 as well after regeneration of the biosensor tips. […] The anti-CI-M6PR antibody (clone 2G11) and GBP were used as positive and negative controls, respectively.
(§2) Analysis of the binding kinetics was performed using an Octet Red96 (FortéBio) device with Streptavidin SA Biosensor tips (VWR 733-2145). Therefore, 1 mL of human domain₁₋₃His₆ (0.5 mg/mL in 50 mM MES, 150 mM NaCl, pH 6.5) was incubated at room temperature for 30 minutes with EZ-Link™ NHS-PEG4-Biotin (1 mg) (Thermo Fischer A39259) and NaHCO₃ (100 mM). Biotinylated human domain₁₋₃His₆ was purified using a Zeba spin desalting Column™ (7K MWCO, 2 mL, Thermo Fischer 89890) and 1 μg/mL was used for immobilization on the Streptavidin SA Biosensor tips. The loaded tips were dipped into a particular anti-CI-M6PR VHH solution, serially diluted in kinetics buffer (0.2M NaH₂PO₄, 0.1M Na⁺ citrate, 0.01% BSA, 0.002% Tween20, pH 7.4). This was followed by dissociation of the particular anti-CI-M6PR VHH in kinetics buffer of pH 7.4, followed by regeneration in Glycine (10 mM, pH 3) and neutralisation. Same cycle was repeated but the dissociation was performed at pH 7.0, 6.0, 5.0, 4.5 and 4.0. A reference well and reference sensors were subtracted from ligand sensors afterwards and Savitsky-Golay filtering was applied on the data. Fitting of the data was performed using a 1:1 model, grouped per pH of dissociation.
Consider B1, for which the equilibrium dissociation constant (Kd) was 0.0903 nM, the off-rate constant (koff) came out at 0.000124 s⁻¹ and the association rate constant (kon) amounted to 1.37e+06 M⁻¹ s⁻¹.

Turning to B2, the Kd was 0.282 nM, the koff was determined as 0.000444 s⁻¹ and the kon amounted to 1.57e+06 M⁻¹ s⁻¹.

On to B3, for which the Kd turned out to be 7.44 nM, the koff is around 0.00606 s⁻¹ and the on-rate constant (kon) came out at 814000 M⁻¹ s⁻¹.

B4: the Kd worked out at 1.69 nM, the koff was found to be 0.000787 s⁻¹ and the kon came out at 465000 M⁻¹ s⁻¹.

Regarding B5, the dissociation constant Kd stood at 10.8 nM, the off-rate (koff) was found to be 0.00999 s⁻¹ and the kon is 924000 M⁻¹ s⁻¹.

B6: the dissociation constant (Kd) was found to be 3.35 nM, the koff stood at 0.00352 s⁻¹ and the kon amounted to 1.05e+06 M⁻¹ s⁻¹.

B7: the Kd was determined as 2.33 nM, the koff turned out to be 0.00133 s⁻¹ and the kon was 571000 M⁻¹ s⁻¹.

For B8, the dissociation constant (Kd) was at most 0.000117 nM, the koff was at most 1e-07 s⁻¹ and the kon stood at 853000 M⁻¹ s⁻¹.

A further experiment shares this target. The experiment is described as follows: BLI exp 1, dissoc pH 7. The method, then: as §1, §2
For B1, the Kd is 0.346 nM, the koff amounted to 0.000412 s⁻¹ and the kon amounted to 1.19e+06 M⁻¹ s⁻¹.

Turning to B2, the Kd was determined as 0.476 nM, the koff is 0.00051 s⁻¹ and the kon worked out at 1.07e+06 M⁻¹ s⁻¹.

With B3, the Kd amounted to 6.05 nM, the koff was around 0.00756 s⁻¹ and the kon was determined as 1.25e+06 M⁻¹ s⁻¹.

Turning to B4, the Kd is 6.45 nM, the koff amounted to 0.00368 s⁻¹ and the kon was determined as 570000 M⁻¹ s⁻¹.

Turning to B5, the Kd amounted to 8.08 nM, the koff is 0.00698 s⁻¹ and the association rate constant (kon) is 864000 M⁻¹ s⁻¹.

In the case of B6, the dissociation constant Kd was 2.65 nM, the koff came out at 0.00227 s⁻¹ and the association rate constant (kon) worked out at 856000 M⁻¹ s⁻¹.

Regarding B7, the Kd was 2.2 nM, the koff came to 0.00126 s⁻¹ and the kon is 572000 M⁻¹ s⁻¹.

Consider B8, for which the Kd turned out to be 0.269 nM, the koff came to 0.000604 s⁻¹ and the kon was determined as 2.24e+06 M⁻¹ s⁻¹.

The target is the same in a further experiment. Kind of experiment: ELISA on coated antigen, 2nd of 2 repeats. As for the experimental part: FIGS. 4A-4B. Affinity of anti-CI-M6PR VHHs for recombinant human CI-M6PR Domain 1-3His₆ determined by ELISA. A & B. Measurements for each of the 11 anti-CI-M6PR VHHs in serial dilution binding to the coated human CI-M6PR Domain 1-3His₆ antigen. Detection was performed using an anti-VHH antibody coupled to HRP, and measured as the absorbance of the TMB substrate at 450 nm, correlating to the amount of bound VHH as plotted at the Y-axis. The Log₁₀ concentrations of the serially diluted VHHs were plotted at the X-axis. […] A & B represent replicates but using a different concentration of human CI-M6PR Domain 1-3His₆ (in (FIG. 4A): 0-0.75 μM and in (FIG. 4B): 0-1 μM).
We evaluated the affinity of the VHHs against the hDom₁₋₃His₆ using ELISA. Coated hDom₁₋₃His₆ was incubated with serially diluted VHH that was afterwards detected using an anti-VHH antibody, coupled to HRP.
Background: An ELISA detects its analyte on a solid surface through an enzyme-linked reagent.
Turning to B1, the EC50 – broadly, the concentration at which the effect is half-maximal – stood at 0.0647 nM.

Take B2: the EC50 came out at 0.251 nM.

Turning to B3, the 50% effective concentration (EC50) turned out to be 19.4 nM.

Regarding B4, the 50% effective concentration (EC50) was found to be 0.165 nM.

Take B5: the EC50 was 1.19 nM.

Turning to B7, the EC50 was found to be 70.1 nM.

Take B8: the EC50 is 0.104 nM.

A further experiment has the same target. Kind of experiment: BLI exp 2, dissoc pH 6. The method, then:
as §1
Analysis of the binding kinetics was performed using an Octet Red96 (FortéBio) device with Streptavidin SA Biosensor tips (VWR, 733-2145). To this end, 1 mL of hCI-M6PR_D1-D3 (0.5 mg/mL in 50 mM MES, 150 mM NaCl, pH 6.5) was incubated at room temperature for 30 minutes with a two-fold molar excesses of EZ-Link™ NHS-PEG₄-Biotin (Thermo Fischer, A39259) and NaHCO₃ (100 mM, pH 8.3). Biotinylated hCIMPR_D1-D3 was purified using a Zeba spin desalting column (Thermo Fischer, 89890) and protein concentration was calculated by measuring the absorbance at 280 nm (extinction coefficient 50320 M¹ cm⁻¹). Two-fold biotin-labelled antigen was loaded on the tips (2.5 μg/mL) and subsequently dipped into a particular anti-CI-M6PR VHH-containing solution (ranging from 0-100 nM). Serial VHH dilutions were made in kinetics buffer (0.2 M Na₂HPO₄, 0.1 M Na⁺ citrate, 0.01% BSA, 0.002% Tween20, pH 7.4). After association (100 sec), dissociation was conducted (500 sec) for each anti-CI-M6PR VHH in the kinetics buffer, followed by biosensor regeneration in glycine (10 mM, pH 3) and neutralisation. The same cycle was repeated with dissociation performed in kinetics buffer of pH 7.0, 6.5, 6.0, 5.5, and 5.0.
A reference well and reference sensors were subtracted from ligand sensors afterwards and Savitsky-Golay filtering was applied on the data. Fitting of the data was performed using a 1:1 model, grouped per dissociation pH.
Consider B1, for which the koff was 0.00029 s⁻¹ and the kon is 1.7e+06 M⁻¹ s⁻¹.

As for B2, the koff was 0.000122 s⁻¹ and the kon amounted to 615000 M⁻¹ s⁻¹.

As to B3, the koff is 0.021 s⁻¹ and the kon stood at 560000 M⁻¹ s⁻¹.

Take B4: the koff was 0.0012 s⁻¹ and the kon turned out to be 1.3e+08 M⁻¹ s⁻¹.

As to B5, the koff turned out to be 0.028 s⁻¹ and the kon is 40000 M⁻¹ s⁻¹.

Turning to B6, the koff worked out at 0.00227 s⁻¹ and the on-rate constant (kon) came out at 718000 M⁻¹ s⁻¹.

On to B7, for which the koff was 0.00126 s⁻¹ and the kon amounted to 572000 M⁻¹ s⁻¹.

Regarding B8, the koff came out at 0.000499 s⁻¹ and the kon worked out at 40600 M⁻¹ s⁻¹.

For a further experiment the target is unchanged. The experiment is described as follows: BLI at pH 7.4, 1st of 2 repeats. The method, then: as §1, §2
For B1, the Kd is 0.0903 nM, the koff was 0.000124 s⁻¹ and the kon worked out at 1.37e+06 M⁻¹ s⁻¹.

Regarding B2, the dissociation constant Kd was 0.282 nM, the off-rate constant (koff) was 0.000444 s⁻¹ and the kon stood at 1.57e+06 M⁻¹ s⁻¹.

Turning to B3, the Kd was determined as 7.44 nM, the koff is around 0.00606 s⁻¹ and the kon was determined as 814000 M⁻¹ s⁻¹.

As for B4, the Kd was 1.69 nM, the dissociation rate constant (koff) worked out at 0.000787 s⁻¹ and the kon was found to be 465000 M⁻¹ s⁻¹.

For the molecule B5, the Kd was 10.8 nM, the off-rate (koff) turned out to be 0.00999 s⁻¹ and the kon came to 924000 M⁻¹ s⁻¹.

Consider B6, for which the dissociation constant Kd turned out to be 3.35 nM, the koff was found to be 0.00352 s⁻¹ and the kon was determined as 1.05e+06 M⁻¹ s⁻¹.

With B8, the Kd is at most 0.000117 nM, the koff is at most 1e-07 s⁻¹ and the kon was 853000 M⁻¹ s⁻¹.
